Data set [1] has as its target Escherichia coli RNA polymerase (RNAP) holoenzyme (Escherichia coli) (UniProt P0A7Z4). Nature of the data set: fluorescence-detected abortive initiation assay (tri- and tetranucleotide synthesis), fit to partial-competitive inhibition.
Data set [2] has the same target. Nature of the data set: transcription assay at four NTP concentrations, fit to partial-competitive inhibition (7-mer and 8-mer abortive products); Ki called the reciprocal of the equilibrium binding constant for the MccJ25-RNAP interaction.
In data set [3] the test system is microcin J25.

Experimental findings from US8198021 are described below.

Usually Ki stands for a measure of affinity in units of concentration, obtained from inhibition or displacement. High values mean lower affinity, low ones higher affinity.

Take microcin J25 (peptide): the Ki in data set [1] stood at 1200 nM; in data set [2], 1400 nM.
With “Escherichia coli RNA polymerase (RNAP) holoenzyme”, in data set [3], the α, the factor by which MccJ25 increases KM for NTPs (7-mer and 8-mer abortive products) is 15; the “α, the factor by which MccJ25 increases KM for NTPs (fluorescence-detected abortive initiation, tri- and tetranucleotide synthesis)” value was “α 8.7±2”.
